# Laboratory results taken from paper PMC11602552 (The Journal of Experimental Medicine, 2024).
# B1: Nsun2, purified (enzyme)
# chain: MGRRARGRRFQQPPQPEGEEDASDGGRKRGQAGWEGGYPEIVKENKLFEHYYQELKIVPEGEWDQFMESLREPLPATLRITGYKSHAKEILHCLKNKYFKELEDLEVDGQKVEVPQPLSWYPEELAWHTNLSRKILRKSPLLAKFHQFLVSETESGNISRQEAVSMIPPLLLNVEPHHKILDMCAAPGSKTTQLIEMLHADMSVPFPEGFVIANDVDNKRCYLLVHQAKRLSSPCIMVVNHDASSIPRLTVDVDGRKEILFYDRILCDVPCSGDGTMRKNIDVWKKWTTLNSLQLHGLQLRIATRGAEQLAEGGRMVYSTCSLNPVEDEAVIAALLEKSEGALELADVSAELPGLKWMPGVSQWKVMTRDGQWFADWHEVPQGRHTQIRPTMFPPTDLEKLQAMHLERCLRILPHHQNTGGFFVAVLVKKAPMPWNKRQPKVQNKSAEAREPRVSSHVAATEGNPSDQSELESQMITGAGDSETAHNTENTESNEKKDGVCGPPPSKKMKLFGFKEDPFVFIPEDDPLFPPIEKFYALDPSFPRMNLLTRTTEGKKRQLYMVSKELRNVLLNNSEKMKVINTGIKVWCRNNSGEEFDCAFRLAQEGIYTLYPFINSRIITVSMEDVKTLLTQENPFFRKLSSEAYSQVKDLAKGSVVLKYEPDSANPDTLQCPIVLCGWRGKASIRTFVPKNERLHYLRMMGLEVLGEKKKEGVILTNENAASPEQPGDEDAKQTAQDPCVPDSVPGCDAAAAEPSR
# Target: wild type eIF6 (eIF6^WT), purified (UniProt O55135 1-245)
# Assay: SPR
binder,measurement,value
B1,Kd,1470 nM
